T1: mouse FcγRII (mouse, UniProt P08101 30-210)
T1 construct: Extracellular domain with C-terminal His tag; also called mFcγRII; mFcgRII
T1 sequence: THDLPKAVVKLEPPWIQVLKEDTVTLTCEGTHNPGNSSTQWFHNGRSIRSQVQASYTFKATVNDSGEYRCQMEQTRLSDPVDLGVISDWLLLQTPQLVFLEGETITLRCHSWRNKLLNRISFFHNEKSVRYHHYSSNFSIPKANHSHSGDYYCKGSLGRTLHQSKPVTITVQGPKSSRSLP

T2: mouse FcγRIII (mouse, UniProt P08508 31-215)
T2 construct: Extracellular domain with C-terminal His tag; also called mFcγRIII; mFcgRIII
T2 chain: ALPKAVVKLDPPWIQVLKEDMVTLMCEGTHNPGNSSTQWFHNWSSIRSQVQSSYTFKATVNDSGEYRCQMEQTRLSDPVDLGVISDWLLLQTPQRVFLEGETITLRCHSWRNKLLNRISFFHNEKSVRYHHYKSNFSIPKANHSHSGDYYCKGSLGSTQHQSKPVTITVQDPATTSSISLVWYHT


Tests used:
[1] = target: T1, mouse FcγRII; assay: SPR (Biacore T200); KD of H237-mIgG1/MRAL-k0 / KD of variant
[2] = target: T2, mouse FcγRIII; assay: as above
[3] = target: T1, mouse FcγRII; assay: SPR (Biacore T200); KD of H237-MB630/MRAL-k0 / KD of variant
[4] = target: T2, mouse FcγRIII; assay: as above

Binder	relative mFcγRII-binding activity (mIgG1 = 1) [1] [fold]	relative mFcγRIII-binding activity (mIgG1 = 1) [2] [fold]	Relative mFcγRII-binding activity (MB630 = 1) [3] [fold]	Relative mFcγRIII-binding activity (MB630 = 1) [4] [fold]
MB780 (antibody, mouse IgG1, kappa, CH name; VH H237 + CH, L chain MRAL-k0; copies: 2 + 2) heavy: QVQLQESGPGLVKPSETLSLTCAVSGHSISHDHAWSWVRQPPGEGLEWIGFISYSGITNYNPSLQGRVTISRDNSKNTLYLQMNSLRAEDTAVYYCARSLARTTAMDYWGEGTLVTVSSAKTTPPSVYPLAPGSAAQTNSMVTLGCLVKGYFPEPVTVTWNSGSLSSGVHTFPAVLQSDLYTLSSSVTVPSSTWPSETVTCNVAHPASSTKVDKKIVPRDCGCKPCICEPNEVELVFIFPPKPKDVLTITLTPKVTCVVVDISKDDPEVQFSWFVDDVEVHTAQTQPREEQFNSTFRSVSELPIMHQDWLNGKEFKCRVNSAGFPAPIEKTISKTKGRPKAPQVYTIPPPKEQMAKDKVSLTCMITDFFPEDITVEWQWNGQPAENYKNTQPIMDTDGSYFVYSKLNVQKSNWEAGNTFTCSVLHEGLHNHHTEKSLSHSPGK light: not shown	20.2	0.39	1.86	2.29
MB781 (antibody, mouse IgG1, kappa, CH name; VH H237 + CH, L chain MRAL-k0; copies: 2 + 2) heavy: QVQLQESGPGLVKPSETLSLTCAVSGHSISHDHAWSWVRQPPGEGLEWIGFISYSGITNYNPSLQGRVTISRDNSKNTLYLQMNSLRAEDTAVYYCARSLARTTAMDYWGEGTLVTVSSAKTTPPSVYPLAPGSAAQTNSMVTLGCLVKGYFPEPVTVTWNSGSLSSGVHTFPAVLQSDLYTLSSSVTVPSSTWPSETVTCNVAHPASSTKVDKKIVPRDCGCKPCICEPNEVELVFIFPPKPKDVLTITLTPKVTCVVVDISKDDPEVQFSWFVDDVEVHTAQTQPREEQFNSTFRSVSELPIMHQDWLNGKEFKCRVNSAAFPKPIEKTISKTKGRPKAPQVYTIPPPKEQMAKDKVSLTCMITDFFPEDITVEWQWNGQPAENYKNTQPIMDTDGSYFVYSKLNVQKSNWEAGNTFTCSVLHEGLHNHHTEKSLSHSPGK light: not shown	5.2	0.13	0.48	0.77
MB783 (antibody, mouse IgG1, kappa, CH name; VH H237 + CH, L chain MRAL-k0; copies: 2 + 2) heavy: QVQLQESGPGLVKPSETLSLTCAVSGHSISHDHAWSWVRQPPGEGLEWIGFISYSGITNYNPSLQGRVTISRDNSKNTLYLQMNSLRAEDTAVYYCARSLARTTAMDYWGEGTLVTVSSAKTTPPSVYPLAPGSAAQTNSMVTLGCLVKGYFPEPVTVTWNSGSLSSGVHTFPAVLQSDLYTLSSSVTVPSSTWPSETVTCNVAHPASSTKVDKKIVPRDCGCKPCICEPNEVELVFIFPPKPKDVLTITLTPKVTCVVVDISKDDPEVQFSWFVDDVEVHTAQTQPREELFNSTFRSVSELPIMHQDWLNGKEFKCRVNSDAFPAPIEKTISKTKGRPKAPQVYTIPPPKEQMAKDKVSLTCMITDFFPEDITVEWQWNGQPAENYKNTQPIMDTDGSYFVYSKLNVQKSNWEAGNTFTCSVLHEGLHNHHTEKSLSHSPGK light: not shown	30.6	0.75	2.82	4.34
MB785 (antibody, mouse IgG1, kappa, CH name; VH H237 + CH, L chain MRAL-k0; copies: 2 + 2) heavy: QVQLQESGPGLVKPSETLSLTCAVSGHSISHDHAWSWVRQPPGEGLEWIGFISYSGITNYNPSLQGRVTISRDNSKNTLYLQMNSLRAEDTAVYYCARSLARTTAMDYWGEGTLVTVSSAKTTPPSVYPLAPGSAAQTNSMVTLGCLVKGYFPEPVTVTWNSGSLSSGVHTFPAVLQSDLYTLSSSVTVPSSTWPSETVTCNVAHPASSTKVDKKIVPRDCGCKPCICEPNEVELVFIFPPKPKDVLTITLTPKVTCVVVDISKDDPEVQFSWFVDDVEVHTAQTQPREEQFNSTFRSVSELPIMHQDWLNGKEFKCRVDSDAFPAPIEKTISKTKGRPKAPQVYTIPPPKEQMAKDKVSLTCMITDFFPEDITVEWQWNGQPAENYKNTQPIMDTDGSYFVYSKLNVQKSNWEAGNTFTCSVLHEGLHNHHTEKSLSHSPGK light: not shown	24.9	0.49	2.29	2.85
MB782 (antibody, mouse IgG1, kappa, CH name; VH H237 + CH, L chain MRAL-k0; copies: 2 + 2) heavy: QVQLQESGPGLVKPSETLSLTCAVSGHSISHDHAWSWVRQPPGEGLEWIGFISYSGITNYNPSLQGRVTISRDNSKNTLYLQMNSLRAEDTAVYYCARSLARTTAMDYWGEGTLVTVSSAKTTPPSVYPLAPGSAAQTNSMVTLGCLVKGYFPEPVTVTWNSGSLSSGVHTFPAVLQSDLYTLSSSVTVPSSTWPSETVTCNVAHPASSTKVDKKIVPRDCGCKPCICEPNEVELVFIFPPKPKDVLTITLTPKVTCVVVDISKDDPEVQFSWFVDDVEVHTAQTQPREELFNSTFRSVSELPIMHQDWLNGKEFKCRVDSAAFPAPIEKTISKTKGRPKAPQVYTIPPPKEQMAKDKVSLTCMITDFFPEDITVEWQWNGQPAENYKNTQPIMDTDGSYFVYSKLNVQKSNWEAGNTFTCSVLHEGLHNHHTEKSLSHSPGK light: not shown	21.3	0.5	1.96	2.89
MB784 (antibody, mouse IgG1, kappa, CH name; VH H237 + CH, L chain MRAL-k0; copies: 2 + 2) heavy: QVQLQESGPGLVKPSETLSLTCAVSGHSISHDHAWSWVRQPPGEGLEWIGFISYSGITNYNPSLQGRVTISRDNSKNTLYLQMNSLRAEDTAVYYCARSLARTTAMDYWGEGTLVTVSSAKTTPPSVYPLAPGSAAQTNSMVTLGCLVKGYFPEPVTVTWNSGSLSSGVHTFPAVLQSDLYTLSSSVTVPSSTWPSETVTCNVAHPASSTKVDKKIVPRDCGCKPCICEPNEVELVFIFPPKPKDVLTITLTPKVTCVVVDISKDDPEVQFSWFVDDVEVHTAQTQPREELFNSTFRSVSELPIMHQDWLNGKEFKCRVNSAAFPAPIERTISKTKGRPKAPQVYTIPPPKEQMAKDKVSLTCMITDFFPEDITVEWQWNGQPAENYKNTQPIMDTDGSYFVYSKLNVQKSNWEAGNTFTCSVLHEGLHNHHTEKSLSHSPGK light: not shown	14.7	0.38	1.36	2.24

The remaining lines, values ahead:

relative mFcγRII-binding activity (mIgG1 = 1) [1] [fold]	relative mFcγRIII-binding activity (mIgG1 = 1) [2] [fold]	Relative mFcγRII-binding activity (MB630 = 1) [3] [fold]	Relative mFcγRIII-binding activity (MB630 = 1) [4] [fold]	Binder
38.5	0.96	3.55	5.57	MB787 (antibody, mouse IgG1, kappa, CH name; VH H237 + CH, L chain MRAL-k0; copies: 2 + 2) heavy: QVQLQESGPGLVKPSETLSLTCAVSGHSISHDHAWSWVRQPPGEGLEWIGFISYSGITNYNPSLQGRVTISRDNSKNTLYLQMNSLRAEDTAVYYCARSLARTTAMDYWGEGTLVTVSSAKTTPPSVYPLAPGSAAQTNSMVTLGCLVKGYFPEPVTVTWNSGSLSSGVHTFPAVLQSDLYTLSSSVTVPSSTWPSETVTCNVAHPASSTKVDKKIVPRDCGCKPCICEPNEVELVFIFPPKPKDVLTITLTPKVTCVVVDISKDDPEVQFSWFVDDVEVHTAQTQPREELFNSTFRSVSELPIMHQDWLNGKEFKCRVDSDAFPAPIEKTISKTKGRPKAPQVYTIPPPKEQMAKDKVSLTCMITDFFPEDITVEWQWNGQPAENYKNTQPIMDTDGSYFVYSKLNVQKSNWEAGNTFTCSVLHEGLHNHHTEKSLSHSPGK light: not shown
27.2	0.57	2.5	3.33	MB786 (antibody, mouse IgG1, kappa, CH name; VH H237 + CH, L chain MRAL-k0; copies: 2 + 2) heavy: QVQLQESGPGLVKPSETLSLTCAVSGHSISHDHAWSWVRQPPGEGLEWIGFISYSGITNYNPSLQGRVTISRDNSKNTLYLQMNSLRAEDTAVYYCARSLARTTAMDYWGEGTLVTVSSAKTTPPSVYPLAPGSAAQTNSMVTLGCLVKGYFPEPVTVTWNSGSLSSGVHTFPAVLQSDLYTLSSSVTVPSSTWPSETVTCNVAHPASSTKVDKKIVPRDCGCKPCICEPNEVELVFIFPPKPKDVLTITLTPKVTCVVVDISKDDPEVQFSWFVDDVEVHTAQTQPREEQFNSTFRSVSELPIMHQDWLNGKEFKCRVNSDAFPAPIERTISKTKGRPKAPQVYTIPPPKEQMAKDKVSLTCMITDFFPEDITVEWQWNGQPAENYKNTQPIMDTDGSYFVYSKLNVQKSNWEAGNTFTCSVLHEGLHNHHTEKSLSHSPGK light: not shown
22.4	0.59	2.06	3.46	MB788 (antibody, mouse IgG1, kappa, CH name; VH H237 + CH, L chain MRAL-k0; copies: 2 + 2) heavy: QVQLQESGPGLVKPSETLSLTCAVSGHSISHDHAWSWVRQPPGEGLEWIGFISYSGITNYNPSLQGRVTISRDNSKNTLYLQMNSLRAEDTAVYYCARSLARTTAMDYWGEGTLVTVSSAKTTPPSVYPLAPGSAAQTNSMVTLGCLVKGYFPEPVTVTWNSGSLSSGVHTFPAVLQSDLYTLSSSVTVPSSTWPSETVTCNVAHPASSTKVDKKIVPRDCGCKPCICEPNEVELVFIFPPKPKDVLTITLTPKVTCVVVDISKDDPEVQFSWFVDDVEVHTAQTQPREELFNSTFRSVSELPIMHQDWLNGKEFKCRVDSAAFPAPIERTISKTKGRPKAPQVYTIPPPKEQMAKDKVSLTCMITDFFPEDITVEWQWNGQPAENYKNTQPIMDTDGSYFVYSKLNVQKSNWEAGNTFTCSVLHEGLHNHHTEKSLSHSPGK light: not shown

Source: patent publication US20150203577A1 (Chugai, published 2015)
